Assay results published in patent US8084276B2, “Method for identifying a subject at risk of developing heart failure by determining the level of galectin-3 or thrombospondin-2” (Universiteit Maastricht, priority 2003, dated 2011).

B1: galectin-3: murine recombinant galectin-3 added exogenously to rat cardiac fibroblasts (protein, UniProt P16110 2-264, looked up)
Galectin-3: ADSFSLNDALAGSGNPNPQGYPGAWGNQPGAGGYPGAAYPGAYPGQAPPGAYPGQAPPGAYPGQAPPSAYPGPTAPGAYPGPTAPGAYPGQPAPGAFPGQPGAPGAYPQCSGGYPAAGPYGVPAGPLTVPYDLPLPGGVMPRMLITIMGTVKPNANRIVLDFRRGNDVAFHFNPRFNENNRRVIVCNTKQDNNWGKEERQSAFPFESGKPFKIQVLVEADHFKVAVNDAHLLQYNHRMKNLREISQLGISGDITLTSANHAMI

Key:
[1] = tested on: Ren-2 rats; assay: Hemodynamics, hypertrophy and fibrosis in Ren-2 transgenic rats with and without ARB; assay type: in vivo, rat; conditions: 0.05 mg/kg/day candesartan from 7-13 weeks of age
Experimental: Homozygous Ren-2 rats were obtained from the Max-Delbrück-Zentrum für Molekulare Medizin, Berlin, Germany. 30 male Ren-2 rats on a Sprague Dawley (SD) background and 9 age-matched SD rats as controls were studied. Of 30 Ren-2 rats, 8 were sacrificed at 10-weeks of age and 8 were treated with 0.05 mg/kg/day of candesartan, an angiotensin II receptor type I blocker (ARB), from 7-13 weeks of age. Of the remaining 14 untreated Ren-2 rats, 6 were sacrificed at 13 weeks upon the development of clinical signs of heart failure and designated as HF-S rats. The remaining 8 Ren-2 rats were closely monitored and were sacrificed at 17 weeks when clinical signs of failure had not yet appeared. These rats were designated as HF-R rats. Hemodynamic parameters were determined before sacrifice and heart, lung and body weight were measured after the sacrifice. The procedure for care and treatment of animals was approved by the institutional animal care committee. Homozygous Ren-2 rats were obtained from the Max-Delbrück-Zentrum für Molekulare Medizin, Berlin, Germany. We studied 16 male Ren-2 rats and 8 age-matched controls from the non-transgenic background, Sprague Dawley (SD) rats. […] The remaining 4 Ren-2 rats were monitored and were sacrificed at 17 weeks when signs of clinical failure had not appeared. […] Heart, lung and body weight were measured after the sacrifice. […]

[2] = tested on: cardiac fibroblasts; assay: Secreted collagen, [3H]proline incorporation assay; assay type: cell-based, rat
Experimental: (§1) Rat cardiac fibroblasts were isolated from 2-day-old neonatal Sprague-Dawley rats, as described previously (Pokharel et al., Hypertension, 40: 155-161, 2002). Cells were cultured in Dulbecco's modification of eagle's medium (DMEM) supplemented with 10% foetal bovine serum (FBS), along with 1% L-glutamate, 50 U/mL penicillin, and 0.1 g/L streptomycin, and were incubated at 37° C. in a humidified 5% CO2 atmosphere. Twenty-four hours after seeding, cells were made quiescent by incubation with media containing 0.5% FBS for 24 hours. Cells were then treated with murine recombinant galectin-3 (control, 10 μg/ml and 30 μg/ml) for 24 hours. The number of dividing cells was determined by radio-labelled methyl-[^3H] thymidine incorporation (0.5 μCi per well) assay. Radioactivity was measured in the mixture of fibroblasts and scintillation liquid using LKB-Wallace beta counter (FSA Laboratory Supplies, Loughborough, UK).
Secreted collagen was measured using a [^3H]proline incorporation assay. Briefly, cardiac fibroblasts were seeded in 6-well plates at 90-100% confluency. During the final 24 hours of incubation, 15 μCi/ml of L-[^3H]proline was added. Incorporated [^3H] proline from the condition medium was precipitated with 10% trichloroacetic acid (TCA) and counted with the scintillation counter. Statistical Analyses

[3] = tested on: Rat cardiac fibroblasts; assay: Cardiac fibroblast proliferation, methyl-[3H]thymidine incorporation; assay type: cell-based; conditions: 24 hours, control 145±4.8, p<0.01
Experimental: as §1

Molecule	dP/dtmax ([1]; evaluated at 13 weeks)	LV weight/body weight % ([1]; evaluated in sacrificed animals at 13 weeks)	proline incorporation (collagen production) ([2]; galectin-3 at 10 μg/ml, not significant, p=0.13)	increase in proline incorporation ([2]; galectin-3 at 30 μg/ml vs control)	proline incorporation (collagen production) ([2]; galectin-3 at 30 μg/ml, control 707±52.8 cpm, p<0.05)	cardiac fibroblast proliferation (thymidine incorporation) ([3]; galectin-3 at 10 μg/ml)	cardiac fibroblast proliferation (thymidine incorporation) ([3]; galectin-3 at 30 μg/ml)
CCOc1nc2cccc(C(=O)O)c2n1Cc1ccc(-c2ccccc2-c2nnn[nH]2)cc1 [candesartan]	8400±202 mmHg/s	2.52±0.36%	–	–	–	–	–
B1	–	–	992±72 cpm	approximately 66%	1066±56 cpm	309±4.8 cpm	347±17.5 cpm
